First the molecules themselves.
B1: EDARADD (parent)
chain: VEKVLRRWVDEEWPKRERGDPSRH
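Also: lentivirally expressed fusions sorted by FACS into six bins by GFP to DsRed ratio, PSI derived from sequencing read proportions per bin multiplied by bin number.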

Variants of B1 are the subject of this data set. The experiment in a line: protein stability index of a GFP-peptide fusion (GPS, HEK-293T) (PSI 1-6); higher = more stable. The note with it: c terminus: a fixed tail appended.
On to VEKVLRRWVDEEWPKRERGDPSRL [H24L], for which the protein stability index was determined as 3.12.
The result for VEKVLRRWVDVEWPKRERGDPSRH [E11V] reads 1.88.
For VEKVLRRWVDWEWPKRERGDPSRH [E11W], the protein stability index is 1.96.
The value for VEKVLRRWVDEEWPKRERGDGSRH [P21G] was 3.02.
For the variant VEKVLRRWVDEEWPKRERGDYSRH [P21Y], the protein stability index was found to be 2.34.
VEKVLRRWVDEEWPKRERGDVSRH [P21V]: the protein stability index stood at 2.19.
As for VEKVLRRWVDEEWPKRERGDSSRH [P21S], the protein stability index came to 3.25.
The value for VEKVLRRWVDEEWPKRERTDPSRH [G19T] was 2.55; that for VEKVLRRWVDEEWPKRERWDPSRH [G19W] was 2.1; that for VEKVLRRWVDEEWPKRERSDPSRH [G19S] was 2.8.
The result for VEKVLRRWVDEEWPKRERHDPSRH [G19H] reads 3.06.
The value for VEKVLRRWVDEEWPKREREDPSRH [G19E] was 3.14; that for VEKVLRRWVDEEWPKRERRDPSRH [G19R] was 2.64; that for VEKVLRRWVDEEWPKRERDDPSRH [G19D] was 3.1.
Take VEKVLRRWVDEEWPKRERNDPSRH [G19N]: the protein stability index is 2.41.
VSKVLRRWVDEEWPKRERGDPSRH [E2S]: the protein stability index was 2.46.
With VRKVLRRWVDEEWPKRERGDPSRH [E2R], the protein stability index came to 2.53.
The value for VAKVLRRWVDEEWPKRERGDPSRH [E2A] was 2.61.
The value for VLKVLRRWVDEEWPKRERGDPSRH [E2L] was 1.39; that for VWKVLRRWVDEEWPKRERGDPSRH [E2W] was 2.05.
Turning to REKVLRRWVDEEWPKRERGDPSRH [V1R], the protein stability index is 4.16.
The result for KEKVLRRWVDEEWPKRERGDPSRH [V1K] reads 2.85; that for PEKVLRRWVDEEWPKRERGDPSRH [V1P], 3.94.
The value for WEKVLRRWVDEEWPKRERGDPSRH [V1W] was 2.28.
The result for LEKVLRRWVDEEWPKRERGDPSRH [V1L] reads 2.19; that for FEKVLRRWVDEEWPKRERGDPSRH [V1F], 1.98.
Consider VEKVLRRWVDEEWPKRERGKPSRH [D20K], for which the protein stability index amounted to 3.07.
VEKVLRRWVDEEWPKRERGIPSRH [D20I]: the protein stability index was 2.19.
The value for VEKVLRRWVDEEWPKRERGCPSRH [D20C] was 2.31; that for VEKVLRRWVDEEWPKRERGEPSRH [D20E] was 2.63; that for VEKVLRRWVNEEWPKRERGDPSRH [D10N] was 2.71.
As for VEKVLRRWVVEEWPKRERGDPSRH [D10V], the protein stability index turned out to be 2.47.
The result for VEKVLRRWVYEEWPKRERGDPSRH [D10Y] reads 2.59; that for VEKVLRRWVREEWPKRERGDPSRH [D10R], 2.62; that for VEKVVRRWVDEEWPKRERGDPSRH [L5V], 3.23.
The value for VEKVFRRWVDEEWPKRERGDPSRH [L5F] was 3.25.
For the variant VEKVIRRWVDEEWPKRERGDPSRH [L5I], the protein stability index was determined as 2.96.
The result for VEKVQRRWVDEEWPKRERGDPSRH [L5Q] reads 2.78.
In the case of VEKVDRRWVDEEWPKRERGDPSRH [L5D], the protein stability index turned out to be 4.57.
Take VEKVARRWVDEEWPKRERGDPSRH [L5A]: the protein stability index stood at 4.3.
The result for VEKVLRRWVDEEWPKREDGDPSRH [R18D] reads 3.18.
The value for VEKVLRQWVDEEWPKRERGDPSRH [R7Q] was 3.45.
The value for VEKVLRGWVDEEWPKRERGDPSRH [R7G] was 3.98; that for VEKVLRRWADEEWPKRERGDPSRH [V9A] was 3.57; that for VEKVLRRWPDEEWPKRERGDPSRH [V9P] was 3.51.
As for VEKVLRRWTDEEWPKRERGDPSRH [V9T], the protein stability index amounted to 3.72.
VEKVLRRWFDEEWPKRERGDPSRH [V9F]: the protein stability index was 2.55.
For the variant VEKVLRRWNDEEWPKRERGDPSRH [V9N], the protein stability index was 3.59.
The result for VEKVLTRWVDEEWPKRERGDPSRH [R6T] reads 3.84; that for VEKVLIRWVDEEWPKRERGDPSRH [R6I], 2.47; that for VEKVLRRWVDEEWPKRERGDPCRH [S22C], 2.2.
The value for VEKVLRRWVDEEWPKRERGDPMRH [S22M] was 2.17; that for VEKVLRRWVDEEWPKRERGDPYRH [S22Y] was 2.52.
The value for VEKVLRRWVDENWPKRERGDPSRH [E12N] was 1.92; that for VEKVLRRWVDEVWPKRERGDPSRH [E12V] was 2.12; that for VEKVLRRWVDEELPKRERGDPSRH [W13L] was 3.38.
In the case of VEKVLRRWVDEERPKRERGDPSRH [W13R], the protein stability index turned out to be 3.96.
As for VEKVLRRWVDEEAPKRERGDPSRH [W13A], the protein stability index is 3.42.
The value for VEKVLRRWVDEEGPKRERGDPSRH [W13G] was 4.24.
Regarding VEKVLRRWVDEEYPKRERGDPSRH [W13Y], the protein stability index turned out to be 2.79.
The value for VEKVLRRWVDEETPKRERGDPSRH [W13T] was 3.38; that for VEKVLRRWVDEEWPKRTRGDPSRH [E17T] was 2.45; that for VEKVLRRWVDEEWPKRIRGDPSRH [E17I] was 2.19.
The result for VEKVLRRWVDEEWPKRYRGDPSRH [E17Y] reads 2.55.
The value for VEKVLRRWVDEEWPKRLRGDPSRH [E17L] was 2.7; that for VEKVLRRWVDEEWPKRFRGDPSRH [E17F] was 2.01.
As to VEKVLRRWVDEEWMKRERGDPSRH [P14M], the protein stability index came out at 2.62.
The value for VEKVLRRWVDEEWFKRERGDPSRH [P14F] was 2.14.
The result for VEKVLRRWVDEEWAKRERGDPSRH [P14A] reads 2.31; that for VEKVLRRWVDEEWRKRERGDPSRH [P14R], 3.06.
The result for VETVLRRWVDEEWPKRERGDPSRH [K3T] reads 2.14; that for VEIVLRRWVDEEWPKRERGDPSRH [K3I], 1.25; that for VEKLLRRWVDEEWPKRERGDPSRH [V4L], 2.2.
As for VEKELRRWVDEEWPKRERGDPSRH [V4E], the protein stability index came out at 4.41.
As to VEKRLRRWVDEEWPKRERGDPSRH [V4R], the protein stability index stood at 3.42.
The value for VEKSLRRWVDEEWPKRERGDPSRH [V4S] was 4.21; that for VEKVLRRWVDEEWPKAERGDPSRH [R16A] was 3.55; that for VEKVLRRWVDEEWPKCERGDPSRH [R16C] was 2.67.
The value for VEKVLRRHVDEEWPKRERGDPSRH [W8H] was 4.08.
The value for VEKVLRRFVDEEWPKRERGDPSRH [W8F] was 3.34.
Consider VEKVLRRKVDEEWPKRERGDPSRH [W8K], for which the protein stability index came to 4.43.
VEKVLRRIVDEEWPKRERGDPSRH [W8I]: the protein stability index turned out to be 3.4.
VEKVLRRWVDEEWPLRERGDPSRH [K15L]: the protein stability index was 2.41.
On to VEKVLRRWVDEEWPFRERGDPSRH [K15F], for which the protein stability index stood at 2.74.
For VEKVLRRWVDEEWPHRERGDPSRH [K15H], the protein stability index was 3.55.
The result for VEKVLRRWVDEEWPTRERGDPSRH [K15T] reads 3.51; that for VEKVLRRWVDEEWPMRERGDPSRH [K15M], 2.97; that for VEKVLRRWVDEEWPPRERGDPSRH [K15P], 3.58.
The value for VEKVLRRWVDEEWPVRERGDPSRH [K15V] was 2.29; that for VEKVLRRWVDEEWPERERGDPSRH [K15E] was 3.96; that for VEKVLRRWVDEEWPNRERGDPSRH [K15N] was 2.25.
Regarding VEKVLRRWVDEEWPKRERGDPSTH [R23T], the protein stability index is 2.58.
The result for VEKVLRRWVDEEWPKRERGDPSQH [R23Q] reads 2.96.
For the variant VEKVLRRWVDEEWPKRERGDPSKH [R23K], the protein stability index is 2.83.

(Values after the supplement of paper PMC10567573.)
